Data on six molecules can be found in paper PMC7089611 (Febs Letters, 2012).

Values joined by “and” are separate entries in the source; they are usually repeats but may differ in a detail not shown here. Identical values can stand only once. Like-named read-outs stand apart in the source and are kept apart here.

Data set [1] concerns the molecule itself. The data set is described as follows: AUC.
Data set [2] is classed as physicochemical. The note with it: CD at 220 nm, protein 7 μM, 50 mM Tris–HCl pH 7.5, 150 mM NaCl, 0.1% β‐mercaptoethanol.
The nature of data set [3]: Secondary structural content by CD spectroscopy. The note with it: 25 °C, protein 5 μM, 50 mM Tris–HCl pH 7.5, 150 mM NaCl, 0.1% β‐mercaptoethanol, CDSSTR. It is filed as physicochemical.
Data set [4] deals with the molecule itself. The data set is described as follows: AUC. The source holds these as a separate data set.
Data set [5] concerns the molecule itself. The data set is described as follows: AUC. This is another data set of the same source.

B1: HCoV‐229E nucleocapsid (N) protein C‐terminal domain truncation N245–370 (domain or fragment)
chain: QKPRWKRQPNDDVTSNVTQCFGPRDLDHNFGSAGVVANGVKAKGYPQFAELVPSTAAMLFDSHIVSKESGNTVVLTFTTRVTVPKDHPHLGKFLEELNAFTREMQQHPLLNPSALEFNPSQTSPAT
As for B1, in data set [1], the dissociation constant (Kd) (as a rule, the equilibrium constant for the complex coming apart) amounted to 177 µM; the stoichiometry N (usually a count of units in the complex or per binding partner) is 2 and 4.

B2: HCoV‐229E nucleocapsid (N) protein C‐terminal domain truncation N245–376 (domain or fragment)
chain: QKPRWKRQPNDDVTSNVTQCFGPRDLDHNFGSAGVVANGVKAKGYPQFAELVPSTAAMLFDSHIVSKESGNTVVLTFTTRVTVPKDHPHLGKFLEELNAFTREMQQHPLLNPSALEFNPSQTSPATAEPVRD
Consider B2, for which, in data set [1], the Kd was 159 µM; the “stoichiometry N” value was 4 and 2.

B3: HCoV‐229E nucleocapsid (N) protein C‐terminal domain truncation N245–382 (domain or fragment)
chain: QKPRWKRQPNDDVTSNVTQCFGPRDLDHNFGSAGVVANGVKAKGYPQFAELVPSTAAMLFDSHIVSKESGNTVVLTFTTRVTVPKDHPHLGKFLEELNAFTREMQQHPLLNPSALEFNPSQTSPATAEPVRDEVSIET
In turn, B3 showed a dissociation constant (Kd) in data set [1] of 3.83 µM.

B4: HCoV‐229E nucleocapsid (N) protein C‐terminal domain truncation N245–350 (domain or fragment)
chain: QKPRWKRQPNDDVTSNVTQCFGPRDLDHNFGSAGVVANGVKAKGYPQFAELVPSTAAMLFDSHIVSKESGNTVVLTFTTRVTVPKDHPHLGKFLEELNAFTREMQQ
In the case of B4, in data set [1], binding was characterised by a dissociation constant (Kd) of 256 µM; the “stoichiometry N” value is 2 and 4.

B5: N245–350: truncated C‐terminal domain of the HCoV‐229E N protein, dimeric C‐terminal structural domain (protein)
chain: B4 chain
modifications: left off: His6, C-terminal, state not stated
Take B5: the “melting temperature (Tm)” value in data set [2] stood at 35.5 °C. For the same molecule, in data set [3], the “Disordered (random coil) content” value was around 15%, the Sheet content is given as around 22% and the Turn content was around 12%.

B6: HCoV‐229E nucleocapsid (N) protein C‐terminal domain N245–389 (domain or fragment)
chain: QKPRWKRQPNDDVTSNVTQCFGPRDLDHNFGSAGVVANGVKAKGYPQFAELVPSTAAMLFDSHIVSKESGNTVVLTFTTRVTVPKDHPHLGKFLEELNAFTREMQQHPLLNPSALEFNPSQTSPATAEPVRDEVSIETDIIDEVN
Regarding B6, the dissociation constant Kd in data set [1] was 3.5 µM; in data set [4], around 9.7 µM; in data set [5], around 6.1 µM.
